Consider four substances from article PMC7305028.

Test in all cases: native MS
The target in experiment [1] is FapF.
The target in experiment [2] is FapF. The source holds these as a separate data set.
Experiment [3] has as its target FapF. The source holds these as a separate data set.

Like-named read-outs stand apart in the source and are kept apart here.

As for FapF (natural protein), the stoichiometry N with FapF [1], in the experiment with FapF [2] and with FapF [3] was 3 throughout.
In the experiment with FapF [3], FapD (natural protein) registered a stoichiometry N (per FapF trimer) of 1.
Still for that read-out and setting: to FapC (natural protein) belongs 1; to FapE (natural protein), 1.
